Test results taken from the supplement of paper PMC9112550, “Optimization of the antimicrobial peptide Bac7 by deep mutational scanning” (BMC Biology, 2022).

Test system: Escherichia coli TOP10
Assay: shrunken log2 fold change of peptide-encoding DNA abundance (4.5 h post-induction vs induction); higher = less antimicrobial activity (less host growth inhibition)
Settings: time post-induction: 4.5 h; library: site-saturation at positions 5, 18, 19, 20
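Also: peptides expressed intracellularly from a pBAD plasmid library in pooled LB shake-flask culture, induced with 0.3% L-arabinose, DNA abundance read by NGS, three biological replicates, DESeq2 with apeglm shrinkage.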

Sequence	shrunken log2 fold change
RRIRVRPPRLPRPRPRPVHVPRP	-0.0459
RRIRPRPPRLPRPRPRPFVFPRP	-0.2
RRIRTRPPRLPRPRPRPRQNPRP	0.067
RRIRGRPPRLPRPRPRPVQKPRP	0.434
RRIRMRPPRLPRPRPRPRMAPRP	1.38
RRIRTRPPRLPRPRPRPNYLPRP	-0.66
RRIRMRPPRLPRPRPRPTQMPRP	0.195
RRIRERPPRLPRPRPRPAVYPRP	-0.221
RRIRSRPPRLPRPRPRPVEYPRP	-0.553
RRIRCRPPRLPRPRPRPGLMPRP	-0.102
RRIRVRPPRLPRPRPRPLQKPRP	0.0697
RRIRGRPPRLPRPRPRPYIIPRP	-0.158
RRIRVRPPRLPRPRPRPHFFPRP	-0.0497
RRIRYRPPRLPRPRPRPGMFPRP	-0.524
RRIRMRPPRLPRPRPRPKPLPRP	0.603
RRIRTRPPRLPRPRPRPAGYPRP	0.138
RRIRFRPPRLPRPRPRPENQPRP	-0.00277
RRIRRRPPRLPRPRPRPPPAPRP	1.28
RRIRRRPPRLPRPRPRPCQDPRP	-0.275
RRIRHRPPRLPRPRPRPHDTPRP	-1.08
RRIRARPPRLPRPRPRPMHEPRP	0.671
RRIRPRPPRLPRPRPRPWEFPRP	-0.0818
RRIRKRPPRLPRPRPRPTAQPRP	1.88
RRIRCRPPRLPRPRPRPSEMPRP	-0.286
RRIRSRPPRLPRPRPRPQYYPRP	-0.29

Sequence	shrunken log2 fold change
RRIRLRPPRLPRPRPRPKGFPRP	-0.109
RRIRERPPRLPRPRPRPGQNPRP	-0.0659
RRIRLRPPRLPRPRPRPRVAPRP	0.272
RRIRDRPPRLPRPRPRPLLFPRP	0.445
RRIRRRPPRLPRPRPRPAGTPRP	-0.0331
RRIRKRPPRLPRPRPRPMILPRP	-0.388
RRIRVRPPRLPRPRPRPWEGPRP	0.0112
RRIRCRPPRLPRPRPRPYICPRP	-0.419
RRIRGRPPRLPRPRPRPSRDPRP	0.921
RRIRPRPPRLPRPRPRPHPRPRP	0.597
RRIRFRPPRLPRPRPRPNRFPRP	-0.174
RRIRNRPPRLPRPRPRPNLWPRP	0.315
RRIRGRPPRLPRPRPRPAAQPRP	1.12
RRIRDRPPRLPRPRPRPHCFPRP	0.00117
RRIRARPPRLPRPRPRPQVMPRP	-0.00224
RRIRDRPPRLPRPRPRPQKVPRP	-0.114
RRIRYRPPRLPRPRPRPHCDPRP	-0.0698
RRIRKRPPRLPRPRPRPYYEPRP	-0.493
RRIRPRPPRLPRPRPRPDRGPRP	0.0265
RRIRQRPPRLPRPRPRPTHPPRP	0.374
RRIRSRPPRLPRPRPRPETKPRP	0.187
RRIRCRPPRLPRPRPRPGLPPRP	0.143
RRIRGRPPRLPRPRPRPIKAPRP	0.024
RRIRYRPPRLPRPRPRPNALPRP	-0.236
RRIRGRPPRLPRPRPRPFCKPRP	0.0671

Sequence	shrunken log2 fold change
RRIRRRPPRLPRPRPRPGEGPRP	0.747
RRIRHRPPRLPRPRPRPSSCPRP	-0.0272
RRIRHRPPRLPRPRPRPCIPPRP	-0.809
RRIRVRPPRLPRPRPRPRQSPRP	0.181
RRIRIRPPRLPRPRPRPQGGPRP	0.102
RRIRIRPPRLPRPRPRPPDTPRP	-0.116
RRIRCRPPRLPRPRPRPQHFPRP	-0.0667
RRIRSRPPRLPRPRPRPYGSPRP	-0.0102
RRIRWRPPRLPRPRPRPCQFPRP	-0.00192
RRIRVRPPRLPRPRPRPKHLPRP	0.0232
RRIRERPPRLPRPRPRPINMPRP	-0.261
RRIRVRPPRLPRPRPRPQVVPRP	-0.00557
RRIRRRPPRLPRPRPRPMRQPRP	0.202
RRIRNRPPRLPRPRPRPRDRPRP	-0.0372
RRIRGRPPRLPRPRPRPLSRPRP	1.17
RRIRYRPPRLPRPRPRPNVLPRP	-0.554
RRIRYRPPRLPRPRPRPWHQPRP	-0.883
RRIRHRPPRLPRPRPRPFFLPRP	-0.238
RRIRLRPPRLPRPRPRPCGWPRP	0.124
RRIRWRPPRLPRPRPRPKFQPRP	-0.00693
RRIRSRPPRLPRPRPRPACWPRP	0.523
RRIRRRPPRLPRPRPRPVSSPRP	0.0647
RRIRQRPPRLPRPRPRPIVQPRP	-0.0505
RRIRARPPRLPRPRPRPAPYPRP	-0.0625
RRIRVRPPRLPRPRPRPCTSPRP	-0.145

Sequence	shrunken log2 fold change
RRIRWRPPRLPRPRPRPNWEPRP	-0.00663
RRIRCRPPRLPRPRPRPHYDPRP	-0.687
RRIRQRPPRLPRPRPRPSYSPRP	-0.298
RRIRKRPPRLPRPRPRPNAVPRP	0.385
RRIRYRPPRLPRPRPRPNAYPRP	-0.212
RRIRKRPPRLPRPRPRPSNSPRP	0.13
RRIRHRPPRLPRPRPRPPTYPRP	-0.0835
RRIRSRPPRLPRPRPRPDWTPRP	-0.179
RRIRMRPPRLPRPRPRPRATPRP	1.57
RRIRLRPPRLPRPRPRPIDAPRP	0.206
RRIRMRPPRLPRPRPRPINVPRP	-0.0528
RRIRRRPPRLPRPRPRPGRSPRP	-0.104
RRIRGRPPRLPRPRPRPAIPPRP	-0.0508
RRIRQRPPRLPRPRPRPNMCPRP	-0.195
RRIRTRPPRLPRPRPRPMMCPRP	-0.59
RRIRDRPPRLPRPRPRPQHPPRP	-0.00435
RRIRCRPPRLPRPRPRPDCNPRP	-0.219
RRIRSRPPRLPRPRPRPMCYPRP	-0.0971
RRIRCRPPRLPRPRPRPQPKPRP	0.273
RRIRWRPPRLPRPRPRPMSQPRP	0.0791
RRIRKRPPRLPRPRPRPVSPPRP	0.286
RRIRSRPPRLPRPRPRPQRKPRP	0.264
RRIRWRPPRLPRPRPRPSGDPRP	0.537
RRIRPRPPRLPRPRPRPWLIPRP	-0.31
RRIRPRPPRLPRPRPRPMDFPRP	-0.115

Sequence	shrunken log2 fold change
RRIRQRPPRLPRPRPRPQSCPRP	0.00408
RRIRPRPPRLPRPRPRPGEPPRP	0.0896
RRIRGRPPRLPRPRPRPMHKPRP	0.866
RRIRPRPPRLPRPRPRPRLAPRP	0.507
RRIRWRPPRLPRPRPRPPWPPRP	0.503
RRIRWRPPRLPRPRPRPADMPRP	0.0185
RRIRYRPPRLPRPRPRPKAVPRP	-0.163
RRIRKRPPRLPRPRPRPRVPPRP	0.0172
RRIRLRPPRLPRPRPRPMLYPRP	-0.232
RRIRMRPPRLPRPRPRPSHWPRP	0.0911
RRIRYRPPRLPRPRPRPAFWPRP	0.444
RRIRIRPPRLPRPRPRPYGKPRP	-0.108
RRIRMRPPRLPRPRPRPWDDPRP	0.533
RRIRFRPPRLPRPRPRPPMEPRP	-0.0751
RRIRLRPPRLPRPRPRPQDQPRP	0.14
RRIRRRPPRLPRPRPRPYCLPRP	-0.574
RRIRNRPPRLPRPRPRPVALPRP	-0.0331
RRIRTRPPRLPRPRPRPTYTPRP	-0.496
RRIRDRPPRLPRPRPRPVGMPRP	0.37
RRIRSRPPRLPRPRPRPKSYPRP	-0.231
RRIRERPPRLPRPRPRPANTPRP	1.45
RRIRIRPPRLPRPRPRPITAPRP	-0.592
RRIRGRPPRLPRPRPRPFFYPRP	0.539
RRIRMRPPRLPRPRPRPYRYPRP	-0.133
RRIRSRPPRLPRPRPRPPSGPRP	0.489
